B1: RYYRITA (peptide)
peptide: {glass slide-PEG}-RYYRITA
modifications: reading uncertain
notes: also called AV3 with Y7 replaced by alanine
B2: AYYRITY (peptide)
peptide: {glass slide-PEG}-AYYRITY
modifications: reading uncertain
notes: also called AV3 with R1 replaced by alanine
B3: RAYRITY (peptide)
peptide: {glass slide-PEG}-RAYRITY
modifications: reading uncertain
notes: also called AV3 with Y2 replaced by alanine
B4: RYYRATY (peptide)
peptide: {glass slide-PEG}-RYYRATY
modifications: reading uncertain
notes: also called AV3 with I5 replaced by alanine
B5: RYYAITY (peptide)
peptide: {glass slide-PEG}-RYYAITY
modifications: reading uncertain
notes: also called AV3 with R4 replaced by alanine
B6: AXI-I peptide SGLTEWLRWFNS (peptide)
peptide: SGLTEWLRWFNS
notes: Unlabelled peptide; On the peptide microarray it is linked by its N-terminus to a glass slide through a PEG linker; also called unlabeled AXI-I
B7: Phage clones 11, 13, 14, 16, 19, 20, 21, 22, 24, 25, 28, 29, 30, 31 and 38 displaying AXI-I (peptide)
chain: SGLTEWLRWFNS
notes: Whole phage virions in the phage ELISA; not shown: phage coat protein of the Ph.D.12 library
B8: Phage clone 27 displaying AXI-II (peptide)
chain: SFATWTPNFERN
notes: as for B7
B9: RWFNS (peptide)
peptide: {glass slide-PEG}-RWFNS
modifications: reading uncertain
notes: chain-length variant of AXI-I (positions 8-12); fixed on the array by its N-terminus through a PEG linker
B10: SGLTE (peptide)
peptide: {glass slide-PEG}-SGLTE
modifications: reading uncertain
notes: chain-length variant of AXI-I (positions 1-5); fixed on the array by its N-terminus through a PEG linker
B11: SGLTEW (peptide)
peptide: {glass slide-PEG linker}-SGLTEW
modifications: reading uncertain
notes: chain-length variant of AXI-I (positions 1-6); fixed on the array by its N-terminus through a PEG linker
B12: SGLTEWLR (peptide)
peptide: {glass slide-PEG linker}-SGLTEWLR
modifications: reading uncertain
notes: chain-length variant of AXI-I (positions 1-8); fixed on the array by its N-terminus through a PEG linker

Where no end group is shown, it is not given here. membrane = cellular membrane (peptide-display support, peptide attached at its C-terminus via a stable linker); glass slide = glass slide (microarray support, peptide conjugated at its N-terminus via a PEG linker); stable linker = not defined here; PEG linker = not defined here; linker = not defined here; PEG = not defined here

T2 sequence (Q9UKX5 23-1141 limits assumed, chain 1 of 2): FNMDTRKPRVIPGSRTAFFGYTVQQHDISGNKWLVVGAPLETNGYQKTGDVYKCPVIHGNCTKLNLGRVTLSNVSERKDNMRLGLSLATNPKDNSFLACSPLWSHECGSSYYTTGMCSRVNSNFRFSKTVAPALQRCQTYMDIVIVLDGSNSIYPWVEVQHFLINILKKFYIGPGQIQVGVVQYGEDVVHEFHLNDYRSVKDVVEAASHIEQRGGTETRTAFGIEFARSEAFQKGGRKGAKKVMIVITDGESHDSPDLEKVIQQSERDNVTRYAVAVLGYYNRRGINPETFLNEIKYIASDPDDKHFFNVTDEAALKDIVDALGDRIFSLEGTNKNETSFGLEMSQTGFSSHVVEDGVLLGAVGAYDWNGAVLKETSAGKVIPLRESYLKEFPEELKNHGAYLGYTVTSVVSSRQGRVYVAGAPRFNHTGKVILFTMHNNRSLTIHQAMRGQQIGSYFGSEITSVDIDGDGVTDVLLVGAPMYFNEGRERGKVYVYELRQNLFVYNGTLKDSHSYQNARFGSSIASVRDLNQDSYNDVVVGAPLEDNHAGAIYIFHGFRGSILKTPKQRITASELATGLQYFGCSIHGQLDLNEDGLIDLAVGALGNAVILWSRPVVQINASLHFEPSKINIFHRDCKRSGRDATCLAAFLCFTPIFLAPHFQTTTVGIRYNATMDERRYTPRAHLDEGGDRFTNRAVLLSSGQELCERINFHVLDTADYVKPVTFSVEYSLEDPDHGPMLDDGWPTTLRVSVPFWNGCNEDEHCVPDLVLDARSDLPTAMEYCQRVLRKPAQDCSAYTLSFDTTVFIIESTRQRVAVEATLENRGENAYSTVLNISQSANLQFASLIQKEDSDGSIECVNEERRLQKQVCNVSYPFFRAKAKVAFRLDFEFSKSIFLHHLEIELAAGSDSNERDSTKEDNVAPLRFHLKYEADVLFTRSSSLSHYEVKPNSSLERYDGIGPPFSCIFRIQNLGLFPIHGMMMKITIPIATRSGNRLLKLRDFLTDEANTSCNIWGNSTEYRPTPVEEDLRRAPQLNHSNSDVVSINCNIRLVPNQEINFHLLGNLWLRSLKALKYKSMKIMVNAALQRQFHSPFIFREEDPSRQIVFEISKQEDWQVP
T2 sequence (P05556 21-728 limits assumed, chain 2 of 2): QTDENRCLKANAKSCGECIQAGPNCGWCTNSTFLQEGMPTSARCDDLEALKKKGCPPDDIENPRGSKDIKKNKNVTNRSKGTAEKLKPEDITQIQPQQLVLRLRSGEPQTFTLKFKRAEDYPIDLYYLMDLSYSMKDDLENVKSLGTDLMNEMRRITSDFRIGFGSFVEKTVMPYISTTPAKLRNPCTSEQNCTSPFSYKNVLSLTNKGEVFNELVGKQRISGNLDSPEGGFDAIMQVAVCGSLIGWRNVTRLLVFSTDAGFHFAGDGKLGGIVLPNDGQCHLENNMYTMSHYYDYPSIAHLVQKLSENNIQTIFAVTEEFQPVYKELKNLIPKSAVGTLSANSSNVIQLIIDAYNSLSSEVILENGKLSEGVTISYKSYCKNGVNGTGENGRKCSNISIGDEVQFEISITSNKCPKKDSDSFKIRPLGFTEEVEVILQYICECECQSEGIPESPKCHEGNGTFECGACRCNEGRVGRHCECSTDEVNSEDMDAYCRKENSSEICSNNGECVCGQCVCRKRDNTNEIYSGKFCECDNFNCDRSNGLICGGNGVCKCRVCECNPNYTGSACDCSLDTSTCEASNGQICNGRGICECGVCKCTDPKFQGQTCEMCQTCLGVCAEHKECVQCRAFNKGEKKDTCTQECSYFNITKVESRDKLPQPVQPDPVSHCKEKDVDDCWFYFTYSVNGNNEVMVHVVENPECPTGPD
T1 sequence (P08648 42-995 limits assumed, chain 1 of 2): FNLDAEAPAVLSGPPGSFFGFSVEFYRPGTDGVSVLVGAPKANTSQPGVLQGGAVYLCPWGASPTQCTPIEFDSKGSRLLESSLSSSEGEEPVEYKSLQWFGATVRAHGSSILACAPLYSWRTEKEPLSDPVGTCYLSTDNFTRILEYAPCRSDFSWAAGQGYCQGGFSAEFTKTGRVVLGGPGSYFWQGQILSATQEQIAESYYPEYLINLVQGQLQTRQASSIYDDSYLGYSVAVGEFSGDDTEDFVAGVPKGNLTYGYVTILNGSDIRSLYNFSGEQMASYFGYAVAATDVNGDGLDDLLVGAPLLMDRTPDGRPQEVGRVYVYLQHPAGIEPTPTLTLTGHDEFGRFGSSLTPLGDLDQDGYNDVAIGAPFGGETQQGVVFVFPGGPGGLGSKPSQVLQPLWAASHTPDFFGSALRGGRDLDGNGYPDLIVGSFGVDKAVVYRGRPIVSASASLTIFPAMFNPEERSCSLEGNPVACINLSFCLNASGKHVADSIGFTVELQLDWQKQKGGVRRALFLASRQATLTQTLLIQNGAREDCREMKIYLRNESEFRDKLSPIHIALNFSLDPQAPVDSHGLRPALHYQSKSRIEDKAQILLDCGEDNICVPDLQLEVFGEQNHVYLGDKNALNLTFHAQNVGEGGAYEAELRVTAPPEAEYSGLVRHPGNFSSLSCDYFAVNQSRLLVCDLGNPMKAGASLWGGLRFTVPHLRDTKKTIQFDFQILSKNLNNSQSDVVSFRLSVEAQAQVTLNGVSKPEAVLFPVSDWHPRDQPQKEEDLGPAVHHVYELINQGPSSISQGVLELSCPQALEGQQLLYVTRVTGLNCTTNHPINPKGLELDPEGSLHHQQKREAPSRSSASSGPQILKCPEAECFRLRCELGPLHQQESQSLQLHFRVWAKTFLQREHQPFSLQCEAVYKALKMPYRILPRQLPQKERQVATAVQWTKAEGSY
T1 sequence (P05556 21-728 limits assumed, chain 2 of 2): as the sequence (P05556 21-728 limits assumed, chain 2 of 2) above

One assay concerns the target T1, α5β1 human recombinant protein (human, UniProt P08648 42-995; P05556 21-728).
T1 construct: Bought from R&D Systems; also called α5β1 receptor; integrin α5β1
The assay is described as follows: peptide microarray incubated with α5β1, anti-α5 detection. Here is the method:
(§1) Peptide microarray was prepared by conjugating peptides at their N-terminal to a glass slide using a PEG linker. […] For the binding studies, the peptide array was blocked with 3% BSA in TBST for 2 hours. Then the array slide was washed 5 times in TB ST and subsequently incubated with the target receptor (α5β1, 10 μg/ml dissolved in PBS) for 1 hour at 37° C. The slides were washed with TBST and then incubated with primary antibody (1 μg/ml) against ITGA5 for 1 hour at 37° C. Then slides were washed and incubated with fluorescent dye labeled secondary antibodies for 30 minutes. The slides were washed with TBST and water and then dried and scanned with a microarray scanner to detect binding of the peptides. The enlightened spots were analyzed using ImageJ software. To determine the unspecific binding, a peptide array was incubated with only primary and secondary antibodies without the receptor incubation step. Then, the signal of unspecific binding was subtracted from the total binding to calculate specific binding.
To find out the amino acids responsible for the peptide binding and the most efficient binding peptides, peptide microarrays were developed with alanine replacement and shorter peptides. In addition, a peptide having the sequence […] (SEQ ID NO:11) (AV3-Cys) was developed. For AV3 (RYYRITY (SEQ ID NO:8)), the peptide microarray was incubated with […] receptor, which was captured by anti-α5 and then fluorescent dye labeled secondary antibody. […] Replacement of T6 induced unspecific binding of the peptide to the incubating antibodies (FIG. 13).
As to {glass slide-PEG}-RYARITY (reading uncertain) [AV3 with Y3 replaced by alanine], the binding result is “no binding”.

For B1, the binding result is “binds”.

For the molecule B2, the binding result was “binds”.

Regarding B3, the binding result is “binds”.

With B4, the binding result is recorded as “binds”.

For B5, the binding result is listed as “binds”.

A further assay has as its target T2, rhIntegrin α11β1 (human, UniProt Q9UKX5 23-1141; P05556 21-728, limits assumed).
T2 construct: Bought from R&D Systems; also called α11β1 receptor; ITGA11 receptor
Put plainly: competition: unlabeled AXI-I in 10-fold excess against AXI-I-FITC on coated α11β1 receptor, fluorescence intensity. As for the experimental part:
Purified ITGA11 receptor (α11β1; 100 μg/ml—stock; R&D systems) was diluted to 5 μg/ml with 1×PBS. 96-well ELISA White Maxisorb plate (Nunc) was coated with 50 μl of 5 μg/ml ITGA11 (or as control α5β1) receptor for overnight at 4° C. Then, wells were blocked for 3-4 hours with 200 μl of blocking buffer (1×PBS containing 5% BSA). Wells were washed three times with 200 μl of washing buffer (1×PBS containing 0.5% BSA and 0.05% TWEEN®-20). Peptides conjugated with FITC were diluted to different concentrations in washing buffer and then added to the plate and incubated at 37° C. for 1 hour. In addition, the binding of the peptide was blocked by co-incubation with 10× higher amount of unlabeled peptide. Subsequently, wells were washed three times with washing buffer. Then, 100 μl of 1×PBS was added and plates were read at 485 nm/520 nm with a fluorescence plate reader.
Turning to B6, the binding result is “binds”.

The next assay deals with T1, α5β1 human recombinant protein. The assay is described as follows: overlapping peptides on membrane incubated with 5 µg/ml α5β1; bound receptor transferred and detected with anti-alpha5 antibody. As for the experimental part: Peptides were attached to their c-terminal site using stable linker. […] The peptide-displaying […] membrane was soaked in methanol for 1 minute and rinsed in Tris-buffered saline (TBS) and washed three times. Then, the membrane was blocked with 3% BSA in 0.05% TWEEN®-20 containing TBS (TBST) for 3 hours at room temperature. Then, the membrane was washed for 10 minutes with TB ST and incubated with 5 μg/ml α5β1 human recombinant protein (R&D systems) in 3% BSA in TB ST for 1 hour at room temperature and then overnight at 4° C. Subsequently, the membrane was washed three times with TB ST. Thereafter, the bound receptor to the membrane was transferred to the PVDF membrane. To achieve this, first, the PVDF membrane was soaked in methanol for 1 minute and then blocked with 5% skimmed fat milk for 2 hours. Then, the membrane was incubated with primary anti-alpha5 integrin antibody (Sigma-Aldrich) for overnight in 5% skimmed milk. The membrane was washed three times with TBST and then incubated with anti-rabbit-HRP secondary antibody (Dako), washed and developed with chemiluminescence detection kit.
The domains 9 and 10 of FN were chosen to design peptides, as these domains were reported to be responsible for binding to the α5β1 receptor, as shown with the docking experiments (Nagae et al, 2012 J. Cell Biol. 131-140). The interaction studies were performed against human recombinant integrin α5β1 receptor and the bound proteins were transferred to another membrane and ITGA5 was detected with antibodies. Many sequences appeared to bind to the α5β1 receptor from human and mouse domains, the strongest binding was obtained with 2 sequences from human FN-III domain 10 as follows.
Consider SIELTNLLVRYS-{stable linker-membrane} (reading uncertain), for which the binding result was “binds”.

With GDSPASSKPISI-{linker-membrane} (reading uncertain), the binding result is “binds”.

With TNLLVRYSPVKN-{stable linker-membrane} (reading uncertain), the binding result is reported as “binds”.

For the molecule TTVRYYRITYGE-{stable linker-membrane} (reading uncertain), the binding result was “binds”.

A further assay deals with T2, rhIntegrin α11β1. Put plainly: phage ELISA on coated rhIntegrin α11β1, HRP-anti-M13 antibody, read at 490 nm; control coatings rhIntegrin α4β1 (Bar 2) and no coating (Bar 3); one phage dose, no concentration given. Here is the method: For each clone, 20 mL of LB medium was inoculated with ER2738 and incubated at 37° C. until slightly turbid. Single plaque of phages were inoculated to each culture and then incubated at 37° C. with vigorous aeration for 4.5 hours. The cultures were transferred to a fresh centrifuge tube and centrifuged for 10 minutes at 10,000 rpm. The upper 80% of the supernatant was transferred to a fresh tube and precipitated with PEG/NaCl twice. Then the pellet was suspended in 250 μL TBS. The 96-well ELISA plate was coated with 100 μL of 1 μg/mL target in coating buffer and incubated at 4° C. overnight. Then, the plate was washed once with the washing buffer (0.1% TWEEN® in TBS). All wells were blocked with 250 μL of blocking buffer at 4° C. for 1-2 hours. Then, the plate was washed 6 times with the washing buffer and slapping on a paper towel to remove excess buffer. Thereafter, 100 μL of phage virions was added per well. In competitive phage ELISA, competitive antigen was mixed with phages in washing buffer and added to the wells and incubated at room temperature for 1-2 hours with agitation. The plate was washed 6 times with washing buffer. HRP-conjugated anti-M13 antibody (GE healthcare, 1:5000 in blocking buffer) was added to each well and incubated at room temperature for 1 hour with agitation. […] The plates were read using a microplate reader at 490 nm.
B7: the binding result is reported as “binds”.

As for B8, the binding result was “binds”.

A further assay has as its target T2, rhIntegrin α11β1. The assay is described as follows: peptide microarray: peptide fixed by its N-terminus through a PEG linker, incubated with α11β1 receptor (10 µg/ml), anti-ITGA11 antibody and fluorescent secondary antibody, signal of the antibodies alone subtracted. Here is the method: as §1, with “(α11β1,” for “(α5β1,”, “ITGA11” for “ITGA5”
{glass slide-PEG}-LRWFNS (reading uncertain): the binding result was “binds”.

Turning to {glass slide-PEG linker}-SGLTEWLRW (reading uncertain), the binding result was “binds”.

For B9, the binding result is recorded as “binds”.

For B10, the binding result is on record as “no binding”.

For B11, the binding result is reported as “no binding”.

B12: the binding result is on record as “no binding”.

For the origin of these results see US20240025965A1 (UNIVERSITEIT TWENTE, published 2024).
